This assay has as its target T1, yeast ubiquitin hydrolase 1 (YUH1) (S. cerevisiae, UniProt P35127 1-236).
T1 sequence (looked up): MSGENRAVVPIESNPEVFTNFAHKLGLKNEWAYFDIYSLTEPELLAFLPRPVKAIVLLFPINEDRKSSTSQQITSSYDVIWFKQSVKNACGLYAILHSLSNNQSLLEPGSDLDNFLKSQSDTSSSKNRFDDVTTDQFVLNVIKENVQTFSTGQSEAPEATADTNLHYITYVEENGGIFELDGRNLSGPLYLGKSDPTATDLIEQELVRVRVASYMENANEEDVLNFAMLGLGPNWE
The assay is described as follows: NMR 1H-15N TROSY spectra of the complex.

B1: yeast ubiquitin (natural protein)
chain: not shown
modifications: 2H,15N-labelled
Turning to B1, the binding result is on record as “binds”.

Values taken from paper doi:10.1101/2021.04.22.440356 (bioRxiv, 2021).
